Test results as given in PMC2757719.

What was measured:
Test in all cases: EMSA
Settings in all cases: 20 mM Tris pH 7.5, 200 mM NaCl, 1 ug salmon sperm DNA, 10 fmol probe, 20 ul, room temperature 10 min; 10% polyacrylamide gel
[1] = molecular target: T1, EBNA1 395-641 (Epstein-Barr virus) (UniProt P03211)
T1 sequence: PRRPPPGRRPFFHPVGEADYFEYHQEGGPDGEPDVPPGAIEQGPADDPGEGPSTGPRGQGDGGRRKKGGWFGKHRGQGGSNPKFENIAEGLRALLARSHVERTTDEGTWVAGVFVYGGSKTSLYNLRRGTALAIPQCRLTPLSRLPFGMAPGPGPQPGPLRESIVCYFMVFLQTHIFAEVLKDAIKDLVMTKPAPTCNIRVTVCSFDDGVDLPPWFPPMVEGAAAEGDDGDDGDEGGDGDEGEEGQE

[2] = molecular target: EBNA1 452-641;USP7 (Epstein-Barr virus;human?) (UniProt P03211+Q93009)
[3] = molecular target: EBNA1 395-641;USP7 (Epstein-Barr virus;human?) (UniProt P03211+Q93009)
EBNA1 395-641;USP7 (Epstein-Barr virus;human?), sequence (Q93009 whole entry, one chain of several): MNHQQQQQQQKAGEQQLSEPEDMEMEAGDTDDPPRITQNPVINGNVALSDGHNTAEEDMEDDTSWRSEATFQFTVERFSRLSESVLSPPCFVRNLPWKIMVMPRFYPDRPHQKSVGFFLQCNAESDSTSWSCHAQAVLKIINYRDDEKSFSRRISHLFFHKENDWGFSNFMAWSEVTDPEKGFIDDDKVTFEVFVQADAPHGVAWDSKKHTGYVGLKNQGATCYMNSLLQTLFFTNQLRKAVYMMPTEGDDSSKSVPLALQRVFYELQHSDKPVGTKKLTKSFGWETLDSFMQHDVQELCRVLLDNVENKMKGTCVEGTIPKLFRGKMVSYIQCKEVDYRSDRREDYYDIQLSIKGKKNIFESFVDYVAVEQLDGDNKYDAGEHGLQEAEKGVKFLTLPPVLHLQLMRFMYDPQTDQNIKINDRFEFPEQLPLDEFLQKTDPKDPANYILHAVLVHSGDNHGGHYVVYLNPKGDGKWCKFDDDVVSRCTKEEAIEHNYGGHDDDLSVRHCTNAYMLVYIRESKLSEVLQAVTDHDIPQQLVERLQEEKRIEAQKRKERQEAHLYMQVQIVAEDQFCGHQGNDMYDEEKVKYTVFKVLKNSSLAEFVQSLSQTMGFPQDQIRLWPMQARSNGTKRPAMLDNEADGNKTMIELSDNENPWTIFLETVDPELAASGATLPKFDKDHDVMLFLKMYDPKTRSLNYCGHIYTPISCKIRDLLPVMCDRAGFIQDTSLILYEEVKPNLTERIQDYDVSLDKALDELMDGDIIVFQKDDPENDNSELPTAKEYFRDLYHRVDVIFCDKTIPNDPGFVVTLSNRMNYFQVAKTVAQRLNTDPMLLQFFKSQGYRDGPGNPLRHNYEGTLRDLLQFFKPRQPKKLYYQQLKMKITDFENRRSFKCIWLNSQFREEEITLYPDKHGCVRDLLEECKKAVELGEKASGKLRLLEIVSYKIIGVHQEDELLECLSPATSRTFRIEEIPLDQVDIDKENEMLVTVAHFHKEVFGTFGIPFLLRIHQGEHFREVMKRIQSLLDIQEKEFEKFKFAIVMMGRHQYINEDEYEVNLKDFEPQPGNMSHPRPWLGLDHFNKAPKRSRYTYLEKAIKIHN

EBNA1 452-641;USP7 (Epstein-Barr virus;human?), sequence (Q93009 whole entry, one chain of several): as above

Question: “CGGGAAGCATATGCTACCCG (double strand) [DS site 1 20-mer]” was tested. Which Kd [1] did it give?
Answer: The Kd was 233 nM.

Question: What about the binding signal (fold increase vs P3 alone) [2] of the same sequence?
Answer: Its binding signal (fold increase vs P3 alone) is 4.

Question: What about the Kd [3] of the same sequence?
Answer: Its Kd is 4 nM.
